According to paper PMC4623604, “Discovery of Small Molecules that Inhibit the Disordered Protein, p27^Kip1” (Scientific Reports, 2015):
Where no end group is shown, it is not given here.

Molecular target: Cdk2/cyclin A complex (human, UniProt P24941 1-298; P20248 173-432)
Test: fluorescence polarisation; fluorescence anisotropy; Cdk2/cyclin A binding to p27-D2-FL (20 nM); 25 °C; 20 mM Na phosphate, pH 7, 200 mM NaCl, 3.5 mM TCEP; non-linear regression on the average of three experiments
Conditions: both partners purified

Kd: 73 ± 8 nM
B1: p27-D2-FL (p27-D2-C99S-R93C labeled with Alexa Fluor 488) (domain or fragment)
chain: RKWNFDFQNHKPLEGKYEWQEVEKGSLPEFYYRPPC(Alexa Fluor 488 C5‑maleimide)PPKGASKVPAQE
notes: p27Kip1 (p27; CDKN1B), human, D2 sub-domain construct, residues 58-105; Cloned in pET28a; also called single-cysteine mutant of p27-D2; source: conjugated with Alexa Fluor488-C5-Maleimide and purified again by HPLC; not shown: 6xHis, N-terminal, cleaved
